What was measured:
[1] = target: mouse talin1 R1 VBS (H4) peptide; assay: Fluorescence polarisation binding of VD1 to VBS peptide; details: fluorescein-labelled talin1 H4 peptide 700 nM, 2-fold serial dilution of protein, 25°C, triplicate, one-site total binding
Description: The mouse talin1 R1 VBS (H4) peptide (C-[…]) was synthesized by GLBiochem (Shanghai) with a non-native, N-terminal cysteine residue. The peptide was coupled with a maleimide-fluorescein dye (Thermo Fisher Scientific) following the manufacturers protocol. Assays were performed in triplicate with a 2-fold serial dilution of protein, with VBS peptide at 700 nM. Fluorescence polarization was measured using a CLARIOstar plate reader (BMGLabTech) at 25°C (excitation: 482 ± 8 nm; emission: 530 ± 20 nm). Data were analyzed using GraphPad Prism 8 software and Kd values were generated using the one-site total binding equation.

[2] = system: talin1 H12 R3; assay: Biosensor analysis (biolayer interferometry, Octet RED384); assay type: binding; details: immobilized biotinylated H12 R3, VD1 16 μM to 15.6 nM, 28°C, pH 7.4, association 600 s, dissociation 1200 s, global fit
Description: Solid-phase synthesized talin1 H12 R3 (C-[…]) with free N-terminal cysteine was labelled with maleimide-PEG2-biotin (Thermo Fisher Scientific A39261). Lyophilized peptide was dissolved in PBS pH 7.4 and reduced at 100 μM peptide concentration with 250 μM TCEP in PBS supplemented with 0.25% Triton-X100 for 10 min at RT. Maleimide-PEG2-biotin was added at 5-fold molar excess (500 μM) and incubation continued for 2 hours at RT, mixing at 30 rpm. The reaction was quenched with β-mercaptoethanol added at 5-fold molar excess over maleimide-PEG2-biotin (2.5 mM) for 20 min at RT. Biotin-labelled peptide was purified using a PD10 desalting column (G25 resin, Cytiva Life Sciences) equilibrated with PBS. Elution fractions containing biotinylated peptide were identified using PageBlue-staining (Thermo Fisher Scientific) of glutaraldehyde-fixed (5%, 2 hours) Bolt BisTris Plus 4–12% SDS-PAGE gels (Thermo Fisher Scientific). The concentration of pooled elution fractions was determined using Pierce BCA microplate assay (Thermo Fisher Scientific) measured with Victor Nivo at 562 nm (PerkinElmer). Aliquoted peptide was flash-frozen with liquid nitrogen and stored at -80°C.
The binding and dissociation kinetics of recombinant WT and Q19S vinculin VD1 to talin1 H12 R3 were determined using ForteBio Octet RED384. […]

[3] = Size exclusion chromatography, oligomeric state; assay type: physicochemical; details: 100 μL at 100 μM, Superdex S200 Increase 10/300, PBS pH 7.4 with 5 mM DTT, 280 nm
Description: Samples of 100 μL protein at 100 μM protein concentration were injected onto a Superdex G-200 increase 10/300 (GE Healthcare) at 0.75 mL/min in PBS pH 7.4 (supplemented with 5 mM DTT) using an AKTA Pure (GE Healthcare), monitoring absorbance at 280 nm.

[4] = Circular dichroism thermal denaturation; assay type: physicochemical; details: 0.45 mg/mL protein, PBS pH 7.4, 222 nm, 20–90°C
Description: The VD1 domain of mouse vinculin (mVD1) was obtained as a codon-optimized synthetic gene in pET151 (GeneArt). The Q19S point mutation was introduced by site-directed mutagenesis and the sequence was verified.
Proteins were purified by nickel-affinity chromatography, followed by anion exchange chromatography. Briefly, cells were thawed, supplemented with 1 mM PMSF and 0.2% v/v Triton X-100 and lysed by sonication. Cell debris were removed by centrifugation and the supernatant was filtered and loaded onto a 5 mL HisTrap HP column (Cytiva) using an AKTA Start (GE Healthcare). The column was washed with buffer containing 50 mM Tris-HCl pH 8, 600 mM NaCl, 30 mM imidazole, 4 mM MgCl2, 4 mM ATP, 5% v/v glycerol, 0.2% v/v Triton X-100 and bound protein was eluted across a 75 mL linear gradient of 0–300 mM Imidazole. Fractions containing mVD1 were pooled, supplemented with AcTEV protease (Invitrogen) to remove the His-Tag and dialyzed against 20 mM Tris-HCl pH 8, 50 mM NaCl. Protein was loaded onto a 5 mL HiTrap Q (Cytiva), eluted across a 75 mL linear gradient of 50–750 mM NaCl, dialyzed against phosphate buffered saline (PBS) pH 7.4, snap-frozen in liquid nitrogen and stored at -80°C.
Circular dichroism was performed using a JASCO J-715 spectropolarimeter with 0.45 mg/mL protein samples in PBS pH 7.4. […]

[5] = system: Vinculin-null mouse embryonic fibroblasts (MEF); assay: Adhesion localization, vinculin/talin intensity (immunostaining, confocal); assay type: cell-based; details: full-length vinculin; vs WT vinculin; n = 22 (WT) and 23 (Q19S) cells
Description: Vinculin-null mouse embryonic fibroblasts (MEF) were a kind gift from Prof. Carsten Grashoff (University of Münster) and have been previously described. Cells were maintained at 10–80% confluency in high-glucose Dulbecco’s modified Eagle medium with GlutaMax (10566016, Thermo Fisher Scientific) supplemented with 10% fetal bovine serum (Gibco) in a humidified 37°C, 5% CO2 incubator. For FRAP experiments, Vin-/- MEF cells were adapted to FluoroBrite DMEM medium (Thermo Fisher Scientific) supplemented with 10% fetal bovine serum and 1% GlutaMax for a minimum of 48 hours.
mEmerald-Vinculin-N-21 was a gift from Michael Davidson (Addgene plasmid # 54304; http://n2t.net/addgene:54304; RRID:Addgene_54304). To restore the wildtype human vinculin sequence, L234V backmutation was introduced to all vinculin constructs. Q19S mutation was introduced by GenScript cloning service. All plasmid constructs were authenticated by sequencing. Vin-/- MEF cells were transfected with the Neon transfection system (Thermo Fisher Scientific). […]
For adhesion intensity analysis, immunostained cells were imaged using a Nikon Eclipse Ti2-E inverted microscope equipped with A1R+ laser scanning confocal unit (Nikon) and Nikon CFI Plan Apo IR SR 60x WI (NA 1.27) objective. […] Talin and vinculin intensities in adhesion sites were analyzed using Fiji distribution of ImageJ 1.53t. […]

Kd [1] [nM] | Molecule | binding and dissociation kinetics (KD, kon, koff) [2] | oligomeric state in solution [3] | melting temperature, Tm [4] [°C] | incorporation into talin-rich focal adhesions [5]
350 | wild-type VD1: VD1 domain of mouse vinculin; in simulations vinculin head domain 1, residues 1–252 (protein, UniProt Q64727 1-252, looked up, fragment, VD1 domain) MPVFHTRTIESILEPVAQQISHLVIMHEEGEVDGKAIPDLTAPVAAVQAAVSNLVRVGKETVQTTEDQILKRDMPPAFIKVENACTKLVQAAQMLQSDPYSVPARDYLIDGSRGILSGTSDLLLTFDEAEVRKIIRVCKGILEYLTVAEVVETMEDLVTYTKNLGPGMTKMAKMIDERQQELTHQEHRVMLVNSMNTVKELLPVLISAMKIFVTTKNSKNQGIEEALKNRNFTVEKMSAEINEIIRVLQLTS | did not reveal significant differences in the binding or dissociation kinetics | monomeric in solution | 60 | 
 | Q19S vinculin: full-length mEmerald-vinculin with Q19S mutation (protein, UniProt Q64727 1-1066, looked up, variant Q19S, full-length mEmerald, full-length mEmerald-vinculin with Q19S mutation) MPVFHTRTIESILEPVAQSISHLVIMHEEGEVDGKAIPDLTAPVAAVQAAVSNLVRVGKETVQTTEDQILKRDMPPAFIKVENACTKLVQAAQMLQSDPYSVPARDYLIDGSRGILSGTSDLLLTFDEAEVRKIIRVCKGILEYLTVAEVVETMEDLVTYTKNLGPGMTKMAKMIDERQQELTHQEHRVMLVNSMNTVKELLPVLISAMKIFVTTKNSKNQGIEEALKNRNFTVEKMSAEINEIIRVLQLTSWDEDAWASKDTEAMKRALASIDSKLNQAKGWLRDPNASPGDAGEQAIRQILDEAGKVGELCAGKERREILGTCKMLGQMTDQVADLRARGQGASPVAMQKAQQVSQGLDVLTAKVENAARKLEAMTNSKQSIAKKIDAAQNWLADPNGGPEGEEQIRGALAEARKIAELCDDPKERDDILRSLGEIAALTSKLGDLRRQGKGDSPEARALAKQVATALQNLQTKTNRAVANSRPAKAAVHLEGKIEQAQRWIDNPTVDDRGVGQAAIRGLVAEGHRLANVMMGPYRQDLLAKCDRVDQLTAQLADLAARGEGESPQARALASQLQDSLKDLKAQMQEAMTQEVSDVFSDTTTPIKLLAVAATAPPDAPNREEVFDERAANFENHSGRLGATAEKAAAVGTANKSTVEGIQASVKTARELTPQVISAARILLRNPGNQAAYEHFETMKNQWIDNVEKMTGLVDEAIDTKSLLDASEEAIKKDLDKCKVAMANIQPQMLVAGATSIARRANRILLVAKREVENSEDPKFREAVKAASDELSKTISPMVMDAKAVAGNISDPGLQKSFLDSGYRILGAVAKVREAFQPQEPDFPPPPPDLEQLRLTDELAPPKPPLPEGEVPPPRPPPPEEKDEEFPEQKAGEVINQPMMMAARQLHDEARKWSSKGNDIIAAAKRMALLMAEMSRLVRGGSGTKRALIQCAKDIAKASDEVTRLAKEVAKQCTDKRIRTNLLQVCERIPTISTQLKILSTVKATMLGRTNISDEESEQATEMLVHNAQNLMQSVKETVREAEAASIKIRTDAGFTLRWVRKTPWYQ |  |  |  | incorporated into talin-rich focal adhesions similarly

Source: publication PMC11333002, “Molecular dynamics simulations reveal how vinculin refolds partially unfolded talin rod helices to stabilize them against mechanical force” (PLOS Computational Biology, 2024)
